The values below come from publication PMC8647860 (Nature, 2021).

Assay [1] deals with Glycine receptor β subunit (native heteromeric GlyR, 4α:1β) (Sus scrofa, UniProt A0A4X1TUM3+Q6KBX4). The assay can be described thus: cryo-EM structure. The assay is classed as binding.
The target in assay [2] is recombinant pig GlyR α1 subunit without fluorophore (pig). The assay can be described thus: cryo-EM structure.
Assay [3] deals with T1, recombinant pig GlyR α1 subunit without fluorophore (pig).
T1 chain: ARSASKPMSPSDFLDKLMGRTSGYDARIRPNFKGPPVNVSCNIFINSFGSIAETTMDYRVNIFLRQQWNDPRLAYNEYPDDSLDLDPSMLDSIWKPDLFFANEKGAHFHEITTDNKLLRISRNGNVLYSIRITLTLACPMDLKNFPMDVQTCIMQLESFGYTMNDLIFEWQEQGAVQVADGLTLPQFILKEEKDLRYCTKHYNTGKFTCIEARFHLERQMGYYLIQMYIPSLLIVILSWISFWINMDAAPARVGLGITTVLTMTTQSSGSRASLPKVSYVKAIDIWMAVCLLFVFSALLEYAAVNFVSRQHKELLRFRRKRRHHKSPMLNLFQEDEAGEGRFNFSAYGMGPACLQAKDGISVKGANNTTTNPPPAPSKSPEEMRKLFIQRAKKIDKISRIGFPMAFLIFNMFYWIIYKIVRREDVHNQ
Kind of assay: cryo-EM structure.

In assay [4] the target is T2, recombinant pig GlyR α1 subunit tagged with YFP (pig).
T2 chain: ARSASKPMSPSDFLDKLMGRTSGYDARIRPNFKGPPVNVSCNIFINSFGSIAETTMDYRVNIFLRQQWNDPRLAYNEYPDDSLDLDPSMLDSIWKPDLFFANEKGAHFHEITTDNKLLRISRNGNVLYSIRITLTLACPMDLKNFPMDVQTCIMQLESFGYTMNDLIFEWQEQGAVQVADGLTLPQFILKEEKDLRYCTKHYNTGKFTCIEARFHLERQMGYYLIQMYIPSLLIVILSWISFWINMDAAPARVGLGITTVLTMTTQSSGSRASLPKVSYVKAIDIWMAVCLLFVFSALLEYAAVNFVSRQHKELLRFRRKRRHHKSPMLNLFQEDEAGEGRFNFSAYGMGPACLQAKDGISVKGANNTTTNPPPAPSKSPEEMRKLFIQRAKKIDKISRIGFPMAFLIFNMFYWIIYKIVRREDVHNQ
Kind of assay: SEC.

`NCC(=O)O` [glycine]: the “cryo-EM structure (2.7 Å)” value in assay [1] was “formed between the hydroxyl moiety of βY231 and the carboxyl group of glycine”.
Regarding “recombinant pig GlyR β subunit without fluorophore (receptor)”, the stoichiometry N (α subunits per β subunit) in assay [2] is 4.

B1: anti-GlyR α 3D1 Fab (Fab, V domains shown)
VH: QVQLQQSGAELMKPGAAVKISCKATGHTISRYWIDWLKQRPGHGLEWIGEILPGSGSTNYNEKFKGKATFTAEKSSNTAYMQLSSLTSEDSAVYYCAMGVRGNYFDYWGQGTTLTVSS
VL: DIVMTQSHKFMSTSVGDRVSITCKASQDVSTAVAWYQQKPGQSPKLLIYWASTRHTGVPGRFTGSGSGTDYTLTISSVQAEDLSLYYCQQHYSTPRTFGGGTKLEIK
As to B1, the binding result in assay [3] and in assay [4] was “binds” in each case.
